T1: S100A7 (human, UniProt P31151 2-101)
T1 construct: also called NP_002954.2
T1 sequence (looked up): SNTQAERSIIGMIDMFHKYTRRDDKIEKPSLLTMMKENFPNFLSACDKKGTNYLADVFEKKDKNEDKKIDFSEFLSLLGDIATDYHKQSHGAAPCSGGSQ

T2: DDX1 (human, UniProt Q92499 1-740)
T2 construct: also called NP_004930.1
T2 sequence (looked up): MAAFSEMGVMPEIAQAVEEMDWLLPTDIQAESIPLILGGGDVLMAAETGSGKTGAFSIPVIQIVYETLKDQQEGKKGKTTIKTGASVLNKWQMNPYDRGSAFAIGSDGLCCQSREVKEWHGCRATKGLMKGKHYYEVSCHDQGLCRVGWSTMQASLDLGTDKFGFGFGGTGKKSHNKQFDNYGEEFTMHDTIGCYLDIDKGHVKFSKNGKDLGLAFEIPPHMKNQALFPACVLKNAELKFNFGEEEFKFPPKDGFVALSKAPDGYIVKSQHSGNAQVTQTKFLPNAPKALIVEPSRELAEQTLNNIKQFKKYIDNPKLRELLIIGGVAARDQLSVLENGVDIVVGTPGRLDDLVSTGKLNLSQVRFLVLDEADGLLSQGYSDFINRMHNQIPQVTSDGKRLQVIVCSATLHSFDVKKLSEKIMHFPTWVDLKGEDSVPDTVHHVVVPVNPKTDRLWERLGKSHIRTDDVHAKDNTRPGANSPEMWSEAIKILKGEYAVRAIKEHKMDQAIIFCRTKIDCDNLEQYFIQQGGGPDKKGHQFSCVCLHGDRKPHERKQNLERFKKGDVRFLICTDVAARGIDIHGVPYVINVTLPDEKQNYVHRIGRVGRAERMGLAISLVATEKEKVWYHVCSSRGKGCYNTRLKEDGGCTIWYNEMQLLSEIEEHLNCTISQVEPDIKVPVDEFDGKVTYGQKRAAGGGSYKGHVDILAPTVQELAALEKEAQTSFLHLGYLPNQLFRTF

T3: MMS19 (human, UniProt Q96T76-9 2-987, limits assumed)
T3 construct: also called NP_001276332.1 (+9)
T3 sequence (looked up): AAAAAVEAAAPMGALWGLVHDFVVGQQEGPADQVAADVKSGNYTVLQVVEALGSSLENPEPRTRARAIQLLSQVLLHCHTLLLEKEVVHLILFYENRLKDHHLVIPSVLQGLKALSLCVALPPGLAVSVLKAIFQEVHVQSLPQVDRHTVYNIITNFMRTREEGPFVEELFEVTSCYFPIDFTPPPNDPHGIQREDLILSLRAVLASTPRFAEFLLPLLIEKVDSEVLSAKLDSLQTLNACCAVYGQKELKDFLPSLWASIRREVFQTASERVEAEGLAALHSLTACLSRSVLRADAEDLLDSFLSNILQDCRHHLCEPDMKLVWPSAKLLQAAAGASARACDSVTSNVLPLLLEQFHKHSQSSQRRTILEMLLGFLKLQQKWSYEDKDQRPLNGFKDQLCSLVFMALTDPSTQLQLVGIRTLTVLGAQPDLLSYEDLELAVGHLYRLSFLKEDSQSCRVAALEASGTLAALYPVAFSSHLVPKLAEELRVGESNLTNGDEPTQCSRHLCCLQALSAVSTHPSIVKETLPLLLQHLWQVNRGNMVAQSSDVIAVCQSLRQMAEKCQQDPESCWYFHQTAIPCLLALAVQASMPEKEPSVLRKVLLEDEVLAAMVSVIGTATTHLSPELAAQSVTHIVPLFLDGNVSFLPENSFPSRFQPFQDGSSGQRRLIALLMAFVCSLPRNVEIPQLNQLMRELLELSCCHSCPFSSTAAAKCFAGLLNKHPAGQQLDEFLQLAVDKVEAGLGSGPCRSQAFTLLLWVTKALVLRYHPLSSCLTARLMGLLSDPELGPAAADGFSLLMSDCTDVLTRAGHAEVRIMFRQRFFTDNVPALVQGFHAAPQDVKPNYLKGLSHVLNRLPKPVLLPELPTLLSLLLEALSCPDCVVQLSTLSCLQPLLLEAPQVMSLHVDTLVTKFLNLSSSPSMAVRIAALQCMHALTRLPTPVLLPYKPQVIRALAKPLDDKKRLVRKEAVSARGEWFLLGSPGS


Key:
Assay in all cases: co-IP with anti-FLAG, C-FLAG B3GNT2, mass spectrometry
LGALS7B = target: T4, LGALS7B (human, UniProt P47929 1-136)
T4 construct: also called NP_001035972.1

S100A7 = target: T1, S100A7
DDX1 = target: T2, DDX1
MMS19 = target: T3, MMS19

T4 sequence (P47929 whole entry): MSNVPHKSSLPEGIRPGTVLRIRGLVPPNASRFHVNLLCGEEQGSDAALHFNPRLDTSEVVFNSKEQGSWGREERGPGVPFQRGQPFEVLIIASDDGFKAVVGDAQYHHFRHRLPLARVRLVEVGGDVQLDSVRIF

Row | co-IP mass spectrometry count (LGALS7B) | co-IP mass spectrometry count (S100A7) | co-IP mass spectrometry count (DDX1) | Binder | co-IP/MS count, C-term flag (MMS19)
1 | 4 | 5 | 4 | C-terminal FLAG tagged B3GNT2 (enzyme, human, UniProt Q9NY97 1-397, looked up, FLAG-tagged ORF overexpressed in cells; pulled down from lysate with mouse anti-FLAG; also called C-FLAG B3GNT2; C-term flag; not shown: C-terminal FLAG tag) MSVGRRRIKLLGILMMANVFIYFIMEVSKSSSQEKNGKGEVIIPKEKFWKISTPPEAYWNREQEKLNRQYNPILSMLTNQTGEAGRLSNISHLNYCEPDLRVTSVVTGFNNLPDRFKDFLLYLRCRNYSLLIDQPDKCAKKPFLLLAIKSLTPHFARRQAIRESWGQESNAGNQTVVRVFLLGQTPPEDNHPDLSDMLKFESEKHQDILMWNYRDTFFNLSLKEVLFLRWVSTSCPDTEFVFKGDDDVFVNTHHILNYLNSLSKTKAKDLFIGDVIHNAGPHRDKKLKYYIPEVVYSGLYPPYAGGGGFLYSGHLALRLYHITDQVHLYPIDDVYTGMCLQKLGLVPEKHKGFRTFDIEEKNKNNICSYVDLMLVHSRKPQEMIDIWSQLQSAHLKC | –
2 | – | – | – | C-terminal FLAG tagged B3GNT2 (enzyme, human, UniProt Q9NY97 1-397, looked up, FLAG-tagged ORF overexpressed in A375 cells; pulled down from the lysate with mouse anti-FLAG; also called C-FLAG B3GNT2; C-term flag; not shown: C-terminal FLAG tag) MSVGRRRIKLLGILMMANVFIYFIMEVSKSSSQEKNGKGEVIIPKEKFWKISTPPEAYWNREQEKLNRQYNPILSMLTNQTGEAGRLSNISHLNYCEPDLRVTSVVTGFNNLPDRFKDFLLYLRCRNYSLLIDQPDKCAKKPFLLLAIKSLTPHFARRQAIRESWGQESNAGNQTVVRVFLLGQTPPEDNHPDLSDMLKFESEKHQDILMWNYRDTFFNLSLKEVLFLRWVSTSCPDTEFVFKGDDDVFVNTHHILNYLNSLSKTKAKDLFIGDVIHNAGPHRDKKLKYYIPEVVYSGLYPPYAGGGGFLYSGHLALRLYHITDQVHLYPIDDVYTGMCLQKLGLVPEKHKGFRTFDIEEKNKNNICSYVDLMLVHSRKPQEMIDIWSQLQSAHLKC | 0

From patent US20240261333A1 (published 2024)
